Data reported in US20230118517A1, “METHODS OF TREATING MULTIPLE MYELOMA” (Seagen Inc., priority 2020, published 2023).
Where “and” joins values, the source holds several entries; their conditions need not be identical. Equal values may be shown once.

How the values were obtained:
BCMA on MM1R cells = target: T1, BCMA on MM1R cells (Homo sapiens, UniProt Q02223); assay: In vitro cell binding capacity assay (free SEA-BCMA in patient serum); type: cell-based; settings: for patients in whom high levels of free SEA-BCMA were maintained throughout the dosing period: Q2wk
T1 construct: endogenous in cells; host or cells: MM1R cells
T1 sequence (Q02223 1-184): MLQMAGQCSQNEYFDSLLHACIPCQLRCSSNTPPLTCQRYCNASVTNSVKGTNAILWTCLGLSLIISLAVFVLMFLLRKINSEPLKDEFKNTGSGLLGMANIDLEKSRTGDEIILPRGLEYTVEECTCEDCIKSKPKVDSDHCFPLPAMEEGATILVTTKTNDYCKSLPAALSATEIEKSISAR
Source text: An in vitro cell binding capacity assay was developed to complement serum concentration measurements of total SEA-BCMA, total soluble BCMA, and flow cytometric evaluation of free, unbound BCMA and total BCMA on plasma cells from the bone marrow. The assay measures the ability of free, unbound SEA-BCMA (e.g. not bound by sBCMA) from patient serum to bind and saturate BCMA in-vitro on a BCMA positive cell line. Titrations of known SEA-BCMA concentrations allow for an evaluation of the concentrations of free, unbound SEA-BCMA in patient serum. Together with a measurement of the percent-bound BCMA on the cell surface, this provides a direct indication of the ability of dosed SEA-BCMA to bind and saturate cell membrane-bound BCMA.
After incubation at room temperature for ½ hour, the cells were washed and stained with a saturating amount of SEA-BCMA conjugated to a fluorescent dye. After incubation at 4° C. in the dark for ½ hr, the cells were washed and fixed. Stained cells were analyzed on an Invitrogen Attune NxT flow cytometer. FlowJo V10 software was used to gate on viable cells and record the median fluorescent intensity (MFI). GraphPad Prism 8 was used for analysis.
The recorded MFI was normalized as follows. Normalization to 0% binding is the MFI from a control well incubated in healthy human serum with no SEA-BCMA present. Normalization to 100% binding is the MFI from a control well incubated in healthy human serum spiked with SEA-BCMA to a concentration 200 μg/mL. A titration of SEA-BCMA in healthy human serum may be used to generate a standard curve using the known amounts of SEA-BCMA.
The maintenance of free SEA-BCMA in the patient serum that are able to bind in vitro to the cell-surface BCMA of a BCMA-expressing cell line was investigated.

Molp-8 MM target cells = assay: ADCC 51Cr release assay with NK effector cells; type: cell-based; settings: Molp-8, with vs without 0.2 μM Nirogacestat, NK cells 10:1, 4 h
Description: Whether the enhanced FcγRIII signaling translated to increased lysis of MM target cells by SEA-BCMA was determined. Molp-8 MM target cells were incubated with and without 0.2 μM Nirogacestat (purchased from SelleckChem) for 24 hrs. Cells were then Na2 [^51Cr] O4 labeled and added to titrations of SEA-BCMA, or isotype antibody control. Effector cells, NK cells enriched from normal donor PBMC, were added at an effector-to-target cell ratio of 10:1 (50,000:5000). Donor NK cells were of the high affinity FcγRIII V/V genotype. The combination of antibodies, NK cells and target cells were incubated for 4 h at 37° C. with and without Nirogacestat. The radioactivity released into the culture supernatant of lysed target cells was then measured and the percent specific cell lysis calculated. […] This is the primary of mechanism of action of SEA-BCMA and translates to specific enhanced anti-MM lysis. It is expected that this will translate to improvements in anti-MM activity in the clinic when SEA-BCMA is combined with GSIs.

[1] = tested on: MM1R myeloma target cells; assay: PBMC-mediated MM1R target cell killing, second experiment (PBMC pretreated 5 days, 0.5 μM pomalidomide); type: cell-based; settings: combined with Pomalidomide, benchmarked against daratumumab, N=2
Description: (§1) Experiments were performed to test whether SEA-BCMA combines effectively with pomalidomide in vitro by combining PBMC effector cells with MM1R target cells treated with both pomalidomide and SEA-BCMA or antibody controls. The first experiment (FIG. 12A) benchmarks against MM standard of care elotuzumab and nonfucosylated parent BCMA antibody. The second experiment (FIG. 12B) benchmarks against MM standard of care daratumumab. MM1R target cells express 15,000 copies of BCMA, 12,000 copies of CS1 (elotuzumab target), and 36,000 copies of CD38 (daratumumab target).
In the second experiment (FIG. 12B), normal donor PBMCs of the FcγRIII V/F genotype were treated with or without 0.5 μM pomalidomide (APEx Bio, cat #A4211) for 5 days. The resulting PBMCs were then washed and mixed with CFSE (Invitrogen cat #V12883) labeled MM1R myeloma target cells at an effector-to-target cell ratio of 10:1. The mixture was then treated with a dose range of the following antibodies: SEA-BCMA, daratumumab, or non-binding hIgG1k antibody control (Sigma cat #15154) with or without 0.5 μM pomalidomide (APEx Bio, cat #A4211) and incubated overnight. Percentage live MM1R cells were then determined using the viability dye 7-AAD (BD Biosciences, cat #559925) by flow cytometry.

[2] = Antitherapeutic antibody (ATA) assessment in patient serum; type: in vivo, human; settings: all samples tested
Source text: A qualified electrochemiluminescence assay were used to assess ATA.

[3] = tested on: MM1R myeloma target cells; assay: PBMC-mediated MM1R target cell killing, first experiment (48 hrs, 3 μM pomalidomide); type: cell-based; settings: combined with Pomalidomide, benchmarked against elotuzumab and WT-BCMA, N=2
Description: as §1
In the first experiment (FIG. 12A), normal donor PBMCs of the FcγRIII V/F genotype were mixed with CFSE (Invitrogen cat #V12883) labeled MM1R myeloma target cells at an effector-to-target cell ratio of 10:1. The mixture was treated with a dose range of the following antibodies: SEA-BCMA, elotuzumab, WT-BCMA (fucosylated parent Ab), or non-binding hIgG1k antibody control (Sigma cat #15154) with or without 3 μM pomalidomide (APEx Bio, cat #A4211). After 48 hrs, the % live MM1R cells were then determined using the viability dye 7-AAD (BD Biosciences, cat #559925) by flow cytometry.

MOLP-8 luciferase cells = assay: Disseminated MM mouse tumor xenograft (luminescence); type: in vivo, SCID mice; settings: SEA-BCMA 3 mg/kg once IP combined with daratumumab 1 mg/kg weekly 5x, N=5
Description: Experiments were performed to test whether SEA-BCMA can combine effectively with daratumumab in a disseminated MM mouse tumor xenograft. MOLP-8 luciferase cells were injected IV into SCID animals and allowed to home to the bone marrow. Molp-8 cells express 2000 copies of BCMA and 323,000 copies of CD38 (daratumumab target). When sufficient luminescence was observed, animals were dosed once IP with SEA-BCMA, or SEA non targeted control at 3 mg/kg. Daratumumab was dosed weekly 5× at 1 mg/kg. Median luminescence plotted, N=5. The combination of SEA-BCMA and daratumumab yielded complete remissions in 4 of 5 animals.

[4] = Pharmacokinetic analysis of SEA-BCMA serum concentration in patients

Substance: SEA-BCMA: non-fucosylated monoclonal anti-BCMA antibody having heavy chain SEQ ID NO: 13 and light chain SEQ ID NO: 15
- patients in whom high levels of free SEA-BCMA were maintained throughout the dosing period (BCMA on MM1R cells; 800 mg (or equivalent)): 6/8 and 6 out of 8
- patients in whom high levels of free SEA-BCMA were maintained throughout the dosing period (BCMA on MM1R cells; 1600 mg): 7/7 and all patients
- maintenance of >95% bound BCMA in vitro through the dosing interval (BCMA on MM1R cells; serum of patients dosed 100 mg-400 mg, two doses 14 days apart): not able to maintain >95% bound BCMA in vitro
- ADCC (specific cell lysis) (Molp-8 MM target cells): Increased ADCC
- MM1R target cell killing [1]: greater MM1R target cell killing
- anti-SEA-BCMA antibodies [2]: No anti-SEA-BCMA antibodies were found
- MM1R target cell killing [3]: greater MM1R target cell killing
- complete remissions (MOLP-8 luciferase cells): 4 of 5
- time at which PK reaches steady state ([4]; Q2W dosing): steady state at cycle 3
- accumulation at steady state ([4]; after Q2W dosing): approximately 70%
